T1: APBA1_1, Q02410
T1 sequence (Q02410 651-752, limits assumed, looked up): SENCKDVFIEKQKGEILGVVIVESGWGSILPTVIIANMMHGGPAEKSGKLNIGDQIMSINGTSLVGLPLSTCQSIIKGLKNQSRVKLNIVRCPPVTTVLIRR

T2: APBA1_2, Q02410
T2 sequence (Q02410 742-832, limits assumed, looked up): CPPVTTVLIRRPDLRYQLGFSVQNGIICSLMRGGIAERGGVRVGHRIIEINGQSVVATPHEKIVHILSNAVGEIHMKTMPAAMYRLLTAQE

T3: DFNB31_2, Q9P202
T3 sequence (Q9P202 274-371, limits assumed, looked up): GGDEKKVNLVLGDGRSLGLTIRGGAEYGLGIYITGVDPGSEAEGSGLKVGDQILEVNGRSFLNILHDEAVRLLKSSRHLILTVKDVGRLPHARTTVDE

T4: DLG3_3, Q92796
T4 sequence (Q92796 374-475, limits assumed, looked up): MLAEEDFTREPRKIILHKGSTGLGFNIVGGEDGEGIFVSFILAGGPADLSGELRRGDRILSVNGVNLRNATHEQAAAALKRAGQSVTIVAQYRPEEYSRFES

T5: GRIP1_4, Q9Y3R0
T5 sequence (Q9Y3R0 467-571, limits assumed, looked up): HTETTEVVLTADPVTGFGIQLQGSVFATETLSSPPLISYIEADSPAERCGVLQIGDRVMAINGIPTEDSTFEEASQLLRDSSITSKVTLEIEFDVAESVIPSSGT

T6: GRIP1_7, Q9Y3R0
T6 sequence (Q9Y3R0 999-1096, limits assumed, looked up): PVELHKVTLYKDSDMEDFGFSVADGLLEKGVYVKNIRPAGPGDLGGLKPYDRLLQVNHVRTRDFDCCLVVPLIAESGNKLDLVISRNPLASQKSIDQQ

T7: MPP7, Q5T2T1
T7 sequence (Q5T2T1 134-230, limits assumed, looked up): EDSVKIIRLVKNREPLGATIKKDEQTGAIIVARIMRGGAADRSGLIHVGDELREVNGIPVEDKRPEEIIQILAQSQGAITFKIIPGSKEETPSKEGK

T8: NHERF3_4, Q5T2W1
T8 sequence (Q5T2W1 373-468, limits assumed, looked up): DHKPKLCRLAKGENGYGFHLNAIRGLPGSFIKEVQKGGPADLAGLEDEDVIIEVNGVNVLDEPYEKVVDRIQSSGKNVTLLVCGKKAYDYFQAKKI

T9: PDZD2_2, O15018
T9 sequence (O15018 329-429, limits assumed, looked up): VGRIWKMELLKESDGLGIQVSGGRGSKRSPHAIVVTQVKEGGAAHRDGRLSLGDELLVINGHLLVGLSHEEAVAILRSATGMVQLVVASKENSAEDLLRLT

T10: RADIL, Q96JH8
T10 sequence (Q96JH8 971-1071, limits assumed, looked up): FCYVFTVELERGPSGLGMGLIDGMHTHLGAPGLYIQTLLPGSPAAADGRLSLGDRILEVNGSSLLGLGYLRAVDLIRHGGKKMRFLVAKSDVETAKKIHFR

T11: SNTG2, Q9NY99
T11 sequence (Q9NY99 68-166, limits assumed, looked up): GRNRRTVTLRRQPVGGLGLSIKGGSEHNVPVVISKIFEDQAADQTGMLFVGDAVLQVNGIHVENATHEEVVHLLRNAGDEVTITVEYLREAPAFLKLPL


Columns and labels:
Assay in all cases: holdup assay
Design in all cases: key: below the threshold = too weak to quantify, mostly under pKd 3.1 to 4
Settings in all cases: plain residues with an end cap or a label only (N-terminal biotin on a linker: ado-ado)
AHNAK1, Q09666 = target: AHNAK1, Q09666
Chain of AHNAK1, Q09666 (Q09666 4-100): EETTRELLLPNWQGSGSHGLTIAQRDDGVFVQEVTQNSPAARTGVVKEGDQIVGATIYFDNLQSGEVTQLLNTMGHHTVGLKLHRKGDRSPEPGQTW

APBA1_1, Q02410 = target: T1, APBA1_1, Q02410
APBA1_2, Q02410 = target: T2, APBA1_2, Q02410
DFNB31_2, Q9P202 = target: T3, DFNB31_2, Q9P202
DLG1_2, Q12959 = target: DLG1_2, Q12959
Chain of DLG1_2, Q12959 (Q12959 314-412): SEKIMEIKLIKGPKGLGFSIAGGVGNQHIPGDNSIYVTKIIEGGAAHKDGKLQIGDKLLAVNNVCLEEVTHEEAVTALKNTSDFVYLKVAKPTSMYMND

DLG1_3, Q12959 = target: DLG1_3, Q12959
Chain of DLG1_3, Q12959 (Q12959 457-571): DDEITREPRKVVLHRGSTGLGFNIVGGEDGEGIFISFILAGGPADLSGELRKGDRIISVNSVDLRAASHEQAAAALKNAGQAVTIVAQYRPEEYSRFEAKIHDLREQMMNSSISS

DLG3_3, Q92796 = target: T4, DLG3_3, Q92796
FRMPD2_3, Q68DX3 = target: FRMPD2_3, Q68DX3
Chain of FRMPD2_3, Q68DX3 (Q68DX3 1073-1166): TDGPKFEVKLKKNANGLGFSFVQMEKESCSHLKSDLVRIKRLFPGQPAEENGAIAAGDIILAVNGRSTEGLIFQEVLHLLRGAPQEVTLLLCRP

GRIP1_4, Q9Y3R0 = target: T5, GRIP1_4, Q9Y3R0
GRIP1_7, Q9Y3R0 = target: T6, GRIP1_7, Q9Y3R0
HTRA2, O43464 = target: HTRA2, O43464
Chain of HTRA2, O43464 (O43464 355-458): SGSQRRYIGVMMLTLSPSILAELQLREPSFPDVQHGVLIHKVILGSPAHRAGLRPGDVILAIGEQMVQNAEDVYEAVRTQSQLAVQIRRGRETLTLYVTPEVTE

Inadl_2, Q8NI35 = target: Inadl_2, Q8NI35
Chain of Inadl_2, Q8NI35 (Q8NI35 238-335): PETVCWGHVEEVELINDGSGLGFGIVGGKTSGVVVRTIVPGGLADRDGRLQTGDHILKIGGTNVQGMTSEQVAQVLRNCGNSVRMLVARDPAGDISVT

Inadl_3, Q8NI35 = target: Inadl_3, Q8NI35
Chain of Inadl_3, Q8NI35 (Q8NI35 359-469): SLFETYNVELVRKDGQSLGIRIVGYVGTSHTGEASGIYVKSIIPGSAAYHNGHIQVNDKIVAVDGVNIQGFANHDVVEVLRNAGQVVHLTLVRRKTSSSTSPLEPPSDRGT

Inadl_5, Q8NI35 = target: Inadl_5, Q8NI35
Chain of Inadl_5, Q8NI35 (Q8NI35 673-780): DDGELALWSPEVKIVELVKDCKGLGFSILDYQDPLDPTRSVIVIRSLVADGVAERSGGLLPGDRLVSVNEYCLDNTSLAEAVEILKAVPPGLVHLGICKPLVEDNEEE

Inadl_6, Q8NI35 = target: Inadl_6, Q8NI35
Chain of Inadl_6, Q8NI35 (Q8NI35 1058-1167): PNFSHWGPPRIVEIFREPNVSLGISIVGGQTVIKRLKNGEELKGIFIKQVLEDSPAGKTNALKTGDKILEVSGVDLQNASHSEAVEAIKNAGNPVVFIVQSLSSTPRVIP

LNX1_2, Q8TBB1 = target: LNX1_2, Q8TBB1
Chain of LNX1_2, Q8TBB1 (Q8TBB1 371-470): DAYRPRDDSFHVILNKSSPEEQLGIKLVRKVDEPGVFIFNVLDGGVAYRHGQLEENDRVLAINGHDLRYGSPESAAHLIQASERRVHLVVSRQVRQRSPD

LNX1_3, Q8TBB1 = target: LNX1_3, Q8TBB1
Chain of LNX1_3, Q8TBB1 (Q8TBB1 500-596): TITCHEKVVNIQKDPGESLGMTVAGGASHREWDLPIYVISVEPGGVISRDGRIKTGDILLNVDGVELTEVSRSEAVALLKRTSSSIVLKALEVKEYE

MAGI3_2, Q5TCQ9 = target: MAGI3_2, Q5TCQ9
Chain of MAGI3_2, Q5TCQ9 (Q5TCQ9 398-503): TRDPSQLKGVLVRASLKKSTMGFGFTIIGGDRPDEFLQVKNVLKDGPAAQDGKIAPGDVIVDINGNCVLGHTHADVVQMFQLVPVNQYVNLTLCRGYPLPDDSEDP

MPP7, Q5T2T1 = target: T7, MPP7, Q5T2T1
NHERF3_4, Q5T2W1 = target: T8, NHERF3_4, Q5T2W1
PDZD2_2, O15018 = target: T9, PDZD2_2, O15018
RADIL, Q96JH8 = target: T10, RADIL, Q96JH8
SCRIB_2, Q14160 = target: SCRIB_2, Q14160
Chain of SCRIB_2, Q14160 (Q14160 857-960): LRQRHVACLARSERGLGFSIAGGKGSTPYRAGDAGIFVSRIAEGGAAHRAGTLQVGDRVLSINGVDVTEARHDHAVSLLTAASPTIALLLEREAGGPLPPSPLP

SNTG2, Q9NY99 = target: T11, SNTG2, Q9NY99
SNX27, Q96L92 = target: SNX27, Q96L92
TJP1_2, Q07157 = target: TJP1_2, Q07157
Chain of TJP1_2, Q07157 (Q07157 181-274): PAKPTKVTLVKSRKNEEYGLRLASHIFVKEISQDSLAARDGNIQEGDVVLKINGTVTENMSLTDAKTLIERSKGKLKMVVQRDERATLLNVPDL

TJP1_3, Q07157 = target: TJP1_3, Q07157
Chain of TJP1_3, Q07157 (Q07157 416-512): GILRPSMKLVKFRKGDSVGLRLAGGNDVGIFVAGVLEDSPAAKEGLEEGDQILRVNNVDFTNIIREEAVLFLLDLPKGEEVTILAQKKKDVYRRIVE

Binder | pKd (AHNAK1, Q09666) | pKd (APBA1_1, Q02410) | pKd (APBA1_2, Q02410) | pKd (DFNB31_2, Q9P202) | pKd (DLG1_2, Q12959) | pKd (DLG1_3, Q12959) | pKd (DLG3_3, Q92796) | pKd (FRMPD2_3, Q68DX3) | pKd (GRIP1_4, Q9Y3R0) | pKd (GRIP1_7, Q9Y3R0) | pKd (HTRA2, O43464) | pKd (Inadl_2, Q8NI35) | pKd (Inadl_3, Q8NI35) | pKd (Inadl_5, Q8NI35) | pKd (Inadl_6, Q8NI35) | pKd (LNX1_2, Q8TBB1) | pKd (LNX1_3, Q8TBB1) | pKd (MAGI3_2, Q5TCQ9) | pKd (MPP7, Q5T2T1) | pKd (NHERF3_4, Q5T2W1) | other results
FEEEAEEEVA [TUBB4B, P68371] | below the threshold | below the threshold | below the threshold | below the threshold | below the threshold | below the threshold | below the threshold | below the threshold | below the threshold | below the threshold | below the threshold | below the threshold | below the threshold | below the threshold | below the threshold | below the threshold | below the threshold | below the threshold | 3.59 | below the threshold | pKd (PDZD2_2, O15018): below the threshold; pKd (RADIL, Q96JH8): below the threshold; pKd (SCRIB_2, Q14160): below the threshold; pKd (SNTG2, Q9NY99): below the threshold; pKd (SNX27, Q96L92): below the threshold; pKd (TJP1_2, Q07157): below the threshold; pKd (TJP1_3, Q07157): below the threshold
VISERNSTTV [C3AR1, Q16581] | below the threshold | below the threshold | below the threshold | below the threshold | 4.72 | below the threshold | below the threshold | below the threshold | below the threshold | below the threshold | below the threshold | below the threshold | below the threshold | 3.65 | below the threshold | 3.78 | below the threshold | 4.83 | below the threshold | below the threshold | pKd (PDZD2_2, O15018): 4.55; pKd (RADIL, Q96JH8): 4.11; pKd (SCRIB_2, Q14160): 3.71; pKd (SNTG2, Q9NY99): 3.61; pKd (SNX27, Q96L92): 4.57; pKd (TJP1_2, Q07157): below the threshold; pKd (TJP1_3, Q07157): below the threshold
REVVMRVTTV [MARCHF9, Q86YJ5] | below the threshold | below the threshold | 3.77 | 3.6 | 5.44 | 5.01 | 4.64 | below the threshold | below the threshold | below the threshold | 3.56 | below the threshold | 3.94 | below the threshold | 3.89 | 4.56 | below the threshold | 5.16 | below the threshold | below the threshold | pKd (PDZD2_2, O15018): 4.37; pKd (RADIL, Q96JH8): 4.68; pKd (SCRIB_2, Q14160): 4.15; pKd (SNTG2, Q9NY99): 4.65; pKd (SNX27, Q96L92): 5.46; pKd (TJP1_2, Q07157): below the threshold; pKd (TJP1_3, Q07157): below the threshold
PDGEMMEVLI [AMOTL1, Q8IY63] | below the threshold | below the threshold | below the threshold | below the threshold | below the threshold | below the threshold | below the threshold | below the threshold | below the threshold | below the threshold | below the threshold | 4.27 | 5.08 | below the threshold | below the threshold | below the threshold | below the threshold | below the threshold | 4.24 | below the threshold | pKd (PDZD2_2, O15018): 3.77; pKd (RADIL, Q96JH8): 3.9; pKd (SCRIB_2, Q14160): below the threshold; pKd (SNTG2, Q9NY99): below the threshold; pKd (SNX27, Q96L92): below the threshold; pKd (TJP1_2, Q07157): below the threshold; pKd (TJP1_3, Q07157): below the threshold
WRSKRTDTLL [RAMP3, O60896] | below the threshold | below the threshold | below the threshold | below the threshold | 4.29 | below the threshold | below the threshold | below the threshold | below the threshold | below the threshold | below the threshold | below the threshold | below the threshold | below the threshold | below the threshold | below the threshold | below the threshold | 4.37 | below the threshold | 3.53 | pKd (PDZD2_2, O15018): 3.52; pKd (RADIL, Q96JH8): 3.57; pKd (SCRIB_2, Q14160): below the threshold; pKd (SNTG2, Q9NY99): below the threshold; pKd (SNX27, Q96L92): 4.31; pKd (TJP1_2, Q07157): 3.55; pKd (TJP1_3, Q07157): below the threshold

Source: article PMC9482650, “Quantitative fragmentomics allow affinity mapping of interactomes” (Nature Communications, 2022)
